The values below come from the Human Domainome abundance scans (Beltran et al. 2025).

± gives the uncertainty stated by the source.

The chains are these.
B1: Activity-dependent neuroprotector homeobox protein, residues 770 to 810; numbered along this chain, Q9H2P0 (parent)
chain: FLTKYFNKQPYPTRREIEKLAASLWLWKSDIASHFSNKRKK

This series covers variants of B1. Description: abundance fitness (aPCA) (normalised: wild type 0, dead -1); higher = more abundant; growth selection in yeast, the domain comes from the species named. Particulars: Homo sapiens.
Consider FYTKYFNKQPYPTRREIEKLAASLWLWKSDIASHFSNKRKK [L2Y], for which the abundance fitness is -0.248 ± 0.12.
On to FLTQYFNKQPYPTRREIEKLAASLWLWKSDIASHFSNKRKK [K4Q], for which the abundance fitness was -0.646 ± 0.29.
The same measure for FLTDYFNKQPYPTRREIEKLAASLWLWKSDIASHFSNKRKK [K4D]: -0.644 ± 0.19.
As for FLTTYFNKQPYPTRREIEKLAASLWLWKSDIASHFSNKRKK [K4T], the abundance fitness is -0.877 ± 0.29.
Take FLTVYFNKQPYPTRREIEKLAASLWLWKSDIASHFSNKRKK [K4V]: the abundance fitness is -0.815 ± 0.43.
On to FLTSYFNKQPYPTRREIEKLAASLWLWKSDIASHFSNKRKK [K4S], for which the abundance fitness is -0.749 ± 0.12.
For FLTGYFNKQPYPTRREIEKLAASLWLWKSDIASHFSNKRKK [K4G], the abundance fitness was -1.07 ± 0.24.
On to FLTNYFNKQPYPTRREIEKLAASLWLWKSDIASHFSNKRKK [K4N], for which the abundance fitness was -0.419 ± 0.18.
As to FLTRYFNKQPYPTRREIEKLAASLWLWKSDIASHFSNKRKK [K4R], the abundance fitness was -0.549 ± 0.11.
The same measure for FLTCYFNKQPYPTRREIEKLAASLWLWKSDIASHFSNKRKK [K4C]: -0.698 ± 0.18; for FLTPYFNKQPYPTRREIEKLAASLWLWKSDIASHFSNKRKK [K4P]: -0.904 ± 0.2; for FLTLYFNKQPYPTRREIEKLAASLWLWKSDIASHFSNKRKK [K4L]: -1 ± 0.36.
As for FLTAYFNKQPYPTRREIEKLAASLWLWKSDIASHFSNKRKK [K4A], the abundance fitness was -0.735 ± 0.27.
Turning to FLPKYFNKQPYPTRREIEKLAASLWLWKSDIASHFSNKRKK [T3P], the abundance fitness is -0.935 ± 0.13.
As for FLYKYFNKQPYPTRREIEKLAASLWLWKSDIASHFSNKRKK [T3Y], the abundance fitness was -0.619 ± 0.18.
FLCKYFNKQPYPTRREIEKLAASLWLWKSDIASHFSNKRKK [T3C]: the abundance fitness is -0.536 ± 0.081.
As for FLMKYFNKQPYPTRREIEKLAASLWLWKSDIASHFSNKRKK [T3M], the abundance fitness is -0.395 ± 0.12.
In the case of FLWKYFNKQPYPTRREIEKLAASLWLWKSDIASHFSNKRKK [T3W], the abundance fitness was -0.786 ± 0.11.
Regarding FLHKYFNKQPYPTRREIEKLAASLWLWKSDIASHFSNKRKK [T3H], the abundance fitness is -0.325 ± 0.058.
Turning to FLDKYFNKQPYPTRREIEKLAASLWLWKSDIASHFSNKRKK [T3D], the abundance fitness is -0.291 ± 0.069.
In the case of FLQKYFNKQPYPTRREIEKLAASLWLWKSDIASHFSNKRKK [T3Q], the abundance fitness was -0.164 ± 0.089.
FLVKYFNKQPYPTRREIEKLAASLWLWKSDIASHFSNKRKK [T3V]: the abundance fitness is -0.544 ± 0.066.
For the variant FLIKYFNKQPYPTRREIEKLAASLWLWKSDIASHFSNKRKK [T3I], the abundance fitness was -0.475 ± 0.1.
With FLEKYFNKQPYPTRREIEKLAASLWLWKSDIASHFSNKRKK [T3E], the abundance fitness was -0.059 ± 0.13.
As for FLKKYFNKQPYPTRREIEKLAASLWLWKSDIASHFSNKRKK [T3K], the abundance fitness is 0.262 ± 0.056.
Then FLGKYFNKQPYPTRREIEKLAASLWLWKSDIASHFSNKRKK [T3G], with -0.132 ± 0.053; and FLNKYFNKQPYPTRREIEKLAASLWLWKSDIASHFSNKRKK [T3N], with 0.167 ± 0.092.
Then FLSKYFNKQPYPTRREIEKLAASLWLWKSDIASHFSNKRKK [T3S], with 0.001 ± 0.054.
Turning to FLFKYFNKQPYPTRREIEKLAASLWLWKSDIASHFSNKRKK [T3F], the abundance fitness is -0.613 ± 0.14.
The same measure for FLAKYFNKQPYPTRREIEKLAASLWLWKSDIASHFSNKRKK [T3A]: -0.303 ± 0.055.
The same measure for FLLKYFNKQPYPTRREIEKLAASLWLWKSDIASHFSNKRKK [T3L]: -0.759 ± 0.084; for FLTKPFNKQPYPTRREIEKLAASLWLWKSDIASHFSNKRKK [Y5P]: -0.526 ± 0.23.
Regarding FLTKGFNKQPYPTRREIEKLAASLWLWKSDIASHFSNKRKK [Y5G], the abundance fitness was -0.812 ± 0.49.
Then FLTKIFNKQPYPTRREIEKLAASLWLWKSDIASHFSNKRKK [Y5I], with -0.094 ± 0.098; and FLTKLFNKQPYPTRREIEKLAASLWLWKSDIASHFSNKRKK [Y5L], with -0.322 ± 0.095.
On to FLTKNFNKQPYPTRREIEKLAASLWLWKSDIASHFSNKRKK [Y5N], for which the abundance fitness is -0.564 ± 0.25.
For the variant FLTKKFNKQPYPTRREIEKLAASLWLWKSDIASHFSNKRKK [Y5K], the abundance fitness is -0.183 ± 0.28.
For FLTKYFNKQPGPTRREIEKLAASLWLWKSDIASHFSNKRKK [Y11G], the abundance fitness worked out at 0.293 ± 0.051.
For FLTKYFNKQPCPTRREIEKLAASLWLWKSDIASHFSNKRKK [Y11C], the abundance fitness amounted to 0.086 ± 0.3.
On to FLTKYFNKQPDPTRREIEKLAASLWLWKSDIASHFSNKRKK [Y11D], for which the abundance fitness is -0.086 ± 0.16.
In the case of FLTKYFNKQPAPTRREIEKLAASLWLWKSDIASHFSNKRKK [Y11A], the abundance fitness stood at 0.137 ± 0.064.
Consider FLTKYFNKQPFPTRREIEKLAASLWLWKSDIASHFSNKRKK [Y11F], for which the abundance fitness was -0.182 ± 0.13.
In the case of FLTKYFNKQPHPTRREIEKLAASLWLWKSDIASHFSNKRKK [Y11H], the abundance fitness came out at 0.076 ± 0.078.
The same measure for FLTKYFNKQPEPTRREIEKLAASLWLWKSDIASHFSNKRKK [Y11E]: 0.02 ± 0.071; for FLTKYFNKTPYPTRREIEKLAASLWLWKSDIASHFSNKRKK [Q9T]: -0.053 ± 0.063; for FLTKYFNKGPYPTRREIEKLAASLWLWKSDIASHFSNKRKK [Q9G]: -0.133 ± 0.12.
The same measure for FLTKYFNKRPYPTRREIEKLAASLWLWKSDIASHFSNKRKK [Q9R]: 0.039 ± 0.059; for FLTKYFNKWPYPTRREIEKLAASLWLWKSDIASHFSNKRKK [Q9W]: -0.823 ± 0.38.
FLTKYFNKAPYPTRREIEKLAASLWLWKSDIASHFSNKRKK [Q9A]: the abundance fitness was -0.269 ± 0.07.
The same measure for FLTKYFNKYPYPTRREIEKLAASLWLWKSDIASHFSNKRKK [Q9Y]: -0.409 ± 0.19.
With FLTKYFNKLPYPTRREIEKLAASLWLWKSDIASHFSNKRKK [Q9L], the abundance fitness was -0.149 ± 0.065.
Regarding FLTKYFNKSPYPTRREIEKLAASLWLWKSDIASHFSNKRKK [Q9S], the abundance fitness is -0.139 ± 0.062.
With FLTKYFNKCPYPTRREIEKLAASLWLWKSDIASHFSNKRKK [Q9C], the abundance fitness was -0.014 ± 0.063.
FLTKYFNKPPYPTRREIEKLAASLWLWKSDIASHFSNKRKK [Q9P]: the abundance fitness was -0.698 ± 0.069.
Then FLTKYFNKEPYPTRREIEKLAASLWLWKSDIASHFSNKRKK [Q9E], with -0.075 ± 0.11; and FLTKYFNKIPYPTRREIEKLAASLWLWKSDIASHFSNKRKK [Q9I], with -0.074 ± 0.1; and FLTKYFNKFPYPTRREIEKLAASLWLWKSDIASHFSNKRKK [Q9F], with -0.233 ± 0.11.
Consider FLTKYFNKNPYPTRREIEKLAASLWLWKSDIASHFSNKRKK [Q9N], for which the abundance fitness is -0.007 ± 0.068.
The same measure for FLTKYFNKDPYPTRREIEKLAASLWLWKSDIASHFSNKRKK [Q9D]: -0.169 ± 0.12.
Take FLTKYFNKVPYPTRREIEKLAASLWLWKSDIASHFSNKRKK [Q9V]: the abundance fitness was -0.269 ± 0.15.
On to FLTKYHNKQPYPTRREIEKLAASLWLWKSDIASHFSNKRKK [F6H], for which the abundance fitness is -0.794 ± 0.089.
